In patent publication US8309523 (VIB VZW, dated 2012):
Read-outs that look alike come from different tables or passages of the source.

Tests used:
Ac-LSSR-AMC [1] = biological target: T1, Ac-LSSR-AMC
T1 chain: LSSR

Z-LSSR-CHO = biological target: T2, Z-LSSR-CHO
T2 chain: LSSR

[2] = biological target: T3, Arabidopsis thaliana serpin, IKLA-mutant, Q9S7T8
T3 chain: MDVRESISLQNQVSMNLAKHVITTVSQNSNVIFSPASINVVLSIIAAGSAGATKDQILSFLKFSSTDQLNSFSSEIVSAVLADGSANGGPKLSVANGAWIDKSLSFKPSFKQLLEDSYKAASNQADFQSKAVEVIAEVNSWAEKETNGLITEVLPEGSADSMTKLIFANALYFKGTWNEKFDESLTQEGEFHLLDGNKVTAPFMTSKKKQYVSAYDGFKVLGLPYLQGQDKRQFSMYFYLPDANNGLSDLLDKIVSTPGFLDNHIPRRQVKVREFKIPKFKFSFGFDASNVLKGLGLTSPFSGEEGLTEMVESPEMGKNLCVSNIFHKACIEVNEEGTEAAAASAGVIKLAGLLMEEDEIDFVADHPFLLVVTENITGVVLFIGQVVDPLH

[3] = biological target: T4, Arabidopsis thaliana serpin (AT1g47710), Q9S7T8
T4 chain: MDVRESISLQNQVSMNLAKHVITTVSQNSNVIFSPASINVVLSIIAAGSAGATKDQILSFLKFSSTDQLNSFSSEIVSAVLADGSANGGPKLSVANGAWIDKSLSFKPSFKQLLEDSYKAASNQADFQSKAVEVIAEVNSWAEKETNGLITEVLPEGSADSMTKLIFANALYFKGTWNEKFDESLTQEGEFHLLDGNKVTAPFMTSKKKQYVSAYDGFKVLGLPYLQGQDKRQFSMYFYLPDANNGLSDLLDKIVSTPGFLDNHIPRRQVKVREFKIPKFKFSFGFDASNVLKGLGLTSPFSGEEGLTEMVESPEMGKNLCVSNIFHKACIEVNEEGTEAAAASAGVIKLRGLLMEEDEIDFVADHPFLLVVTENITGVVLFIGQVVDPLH

Ac-LSSR-AMC [4] = tested on: T5, Ac-LSSR-AMC; remark: listed apart in the source
T5 sequence: LSSR

[5] = biological target: T6, [35S]methionine-labeled human A20 (in vitro translated) (UniProt P21580)
T6 sequence: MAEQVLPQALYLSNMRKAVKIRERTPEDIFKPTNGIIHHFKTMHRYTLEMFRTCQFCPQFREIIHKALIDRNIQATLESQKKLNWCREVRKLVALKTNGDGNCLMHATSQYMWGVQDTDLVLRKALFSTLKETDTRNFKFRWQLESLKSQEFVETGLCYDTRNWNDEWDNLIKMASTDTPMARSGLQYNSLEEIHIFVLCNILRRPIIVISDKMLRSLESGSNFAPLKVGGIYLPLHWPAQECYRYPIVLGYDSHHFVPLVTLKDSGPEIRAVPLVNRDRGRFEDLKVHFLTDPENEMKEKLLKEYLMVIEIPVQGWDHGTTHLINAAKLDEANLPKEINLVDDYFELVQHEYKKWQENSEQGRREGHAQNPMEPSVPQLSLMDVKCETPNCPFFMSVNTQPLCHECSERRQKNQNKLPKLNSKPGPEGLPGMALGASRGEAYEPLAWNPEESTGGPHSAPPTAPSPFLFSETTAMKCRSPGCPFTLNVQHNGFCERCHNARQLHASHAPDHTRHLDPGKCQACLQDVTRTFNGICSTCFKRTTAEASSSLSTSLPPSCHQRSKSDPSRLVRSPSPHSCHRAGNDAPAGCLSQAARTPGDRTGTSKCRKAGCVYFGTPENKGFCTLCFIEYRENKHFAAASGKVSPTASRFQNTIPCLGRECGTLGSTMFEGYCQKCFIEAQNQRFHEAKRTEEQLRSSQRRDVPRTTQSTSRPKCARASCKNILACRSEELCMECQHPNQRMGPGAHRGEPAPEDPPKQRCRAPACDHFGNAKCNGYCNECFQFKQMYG

B1: MALT1 (wild type, Flag- and Avi-tagged bio-construct) (protein)
chain: MSLLGDPLQALPPSAAPTGPLLAPPAGATLNRLREPLLRRLSELLDQAPEGRGWRRLAELAGSRGRLRLSCLDLEQCSLKVLEPEGSPSLCLLKLMGEKGCTVTELSDFLQAMEHTEVLQLLSPPGIKITVNPESKAVLAGQFVKLCCRATGHPFVQYQWFKMNKEIPNGNTSELIFNAVHVKDAGFYVCRVNNNFTFEFSQWSQLDVCDIPESFQRSVDGVSESKLQICVEPTSQKLMPGSTLVLQCVAVGSPIPHYQWFKNELPLTHETKKLYMVPYVDLEHQGTYWCHVYNDRDSQDSKKVEIIIGRTDEAVECTEDELNNLGHPDNKEQTTDQPLAKDKVALLIGNMNYREHPKLKAPLVDVYELTNLLRQLDFKVVSLLDLTEYEMRNAVDEFLLLLDKGVYGLLYYAGHGYENFGNSFMVPVDAPNPYRSENCLCVQNILKLMQEKETGLNVFLLDMCRKRNDYDDTIPILDALKVTANIVFGYATCQGAEAFEIQHSGLANGIFMKFLKDRLLEDKKITVLLDEVAEDMGKCHLTKGKQALEIRSSLSEKRALTDPIQGTEYSAESLVRNLQWAKAHELPESMCLKFDCGVQIQLGFAAEFSNVMIIYTSIVYKPPEIIMCDAYVTDFPLDLDIDPKDANKGTPEETGSYLVSKDLPKHCLYTRLSSLQKLKEHLVFTVCLSYQYSGLEDTVEDKQEVNVGKPLIAKLDMHRGLGRKTCFQTCLMSNGPYQSSAATSGGAGHYHSLQDPFHGVYHSHPGNPSNVTPADSCHCSRTPDAFISSFAHHASCHFSRSNVPVETTDEIPFSFSDRLRISEK
cleavage of Ac-LSSR-AMC in vitro (fluorescence release) (Ac-LSSR-AMC [1]): bio-IP purified MALT1 was indeed able to cleave Ac-LSSR-AMC (see SEQ ID NO:1) in vitro | Ac-LSSR-AMC cleavage by bio-IP purified MALT1 (fluorescence release) (Z-LSSR-CHO): Substrate cleavage by MALT1 was efficiently blocked by a Z-LSSR-CHO (see SEQ ID NO:1) and a Z-GASR-CHO (see SEQ ID NO:2) inhibitor at equimolar concentrations

B2: MALT1 as used in the paracaspase assay of Example 10 (protein)
chain: MSLLGDPLQALPPSAAPTGPLLAPPAGATLNRLREPLLRRLSELLDQAPEGRGWRRLAELAGSRGRLRLSCLDLEQCSLKVLEPEGSPSLCLLKLMGEKGCTVTELSDFLQAMEHTEVLQLLSPPGIKITVNPESKAVLAGQFVKLCCRATGHPFVQYQWFKMNKEIPNGNTSELIFNAVHVKDAGFYVCRVNNNFTFEFSQWSQLDVCDIPESFQRSVDGVSESKLQICVEPTSQKLMPGSTLVLQCVAVGSPIPHYQWFKNELPLTHETKKLYMVPYVDLEHQGTYWCHVYNDRDSQDSKKVEIIIGRTDEAVECTEDELNNLGHPDNKEQTTDQPLAKDKVALLIGNMNYREHPKLKAPLVDVYELTNLLRQLDFKVVSLLDLTEYEMRNAVDEFLLLLDKGVYGLLYYAGHGYENFGNSFMVPVDAPNPYRSENCLCVQNILKLMQEKETGLNVFLLDMCRKRNDYDDTIPILDALKVTANIVFGYATCQGAEAFEIQHSGLANGIFMKFLKDRLLEDKKITVLLDEVAEDMGKCHLTKGKQALEIRSSLSEKRALTDPIQGTEYSAESLVRNLQWAKAHELPESMCLKFDCGVQIQLGFAAEFSNVMIIYTSIVYKPPEIIMCDAYVTDFPLDLDIDPKDANKGTPEETGSYLVSKDLPKHCLYTRLSSLQKLKEHLVFTVCLSYQYSGLEDTVEDKQEVNVGKPLIAKLDMHRGLGRKTCFQTCLMSNGPYQSSAATSGGAGHYHSLQDPFHGVYHSHPGNPSNVTPADSCHCSRTPDAFISSFAHHASCHFSRSNVPVETTDEIPFSFSDRLRISEK
paracaspase assay (MALT1 proteolytic activity) [2]: the IKLA-mutant (SEQ ID NO:16), which is inactive versus plant metacaspase (Vercammen et al., 2006) is performing better than wild type serpin at higher concentrations | paracaspase assay (MALT1 proteolytic activity) [3]: Inhibition of the MALT1 paracaspase activity is possible, but only at relatively high concentrations of serpin

B3: MALT1-R149A (bio-tagged) (protein)
chain: MSLLGDPLQALPPSAAPTGPLLAPPAGATLNRLREPLLRRLSELLDQAPEGRGWRRLAELAGSRGRLRLSCLDLEQCSLKVLEPEGSPSLCLLKLMGEKGCTVTELSDFLQAMEHTEVLQLLSPPGIKITVNPESKAVLAGQFVKLCCAATGHPFVQYQWFKMNKEIPNGNTSELIFNAVHVKDAGFYVCRVNNNFTFEFSQWSQLDVCDIPESFQRSVDGVSESKLQICVEPTSQKLMPGSTLVLQCVAVGSPIPHYQWFKNELPLTHETKKLYMVPYVDLEHQGTYWCHVYNDRDSQDSKKVEIIIGRTDEAVECTEDELNNLGHPDNKEQTTDQPLAKDKVALLIGNMNYREHPKLKAPLVDVYELTNLLRQLDFKVVSLLDLTEYEMRNAVDEFLLLLDKGVYGLLYYAGHGYENFGNSFMVPVDAPNPYRSENCLCVQNILKLMQEKETGLNVFLLDMCRKRNDYDDTIPILDALKVTANIVFGYATCQGAEAFEIQHSGLANGIFMKFLKDRLLEDKKITVLLDEVAEDMGKCHLTKGKQALEIRSSLSEKRALTDPIQGTEYSAESLVRNLQWAKAHELPESMCLKFDCGVQIQLGFAAEFSNVMIIYTSIVYKPPEIIMCDAYVTDFPLDLDIDPKDANKGTPEETGSYLVSKDLPKHCLYTRLSSLQKLKEHLVFTVCLSYQYSGLEDTVEDKQEVNVGKPLIAKLDMHRGLGRKTCFQTCLMSNGPYQSSAATSGGAGHYHSLQDPFHGVYHSHPGNPSNVTPADSCHCSRTPDAFISSFAHHASCHFSRSNVPVETTDEIPFSFSDRLRISEK
cleavage of Ac-LSSR-AMC in vitro (fluorescence release) (Ac-LSSR-AMC [1]): the R149A mutant was as efficient in substrate processing as MALT1

B4: MALT1-C464A (bio-tagged) (protein)
chain: MSLLGDPLQALPPSAAPTGPLLAPPAGATLNRLREPLLRRLSELLDQAPEGRGWRRLAELAGSRGRLRLSCLDLEQCSLKVLEPEGSPSLCLLKLMGEKGCTVTELSDFLQAMEHTEVLQLLSPPGIKITVNPESKAVLAGQFVKLCCRATGHPFVQYQWFKMNKEIPNGNTSELIFNAVHVKDAGFYVCRVNNNFTFEFSQWSQLDVCDIPESFQRSVDGVSESKLQICVEPTSQKLMPGSTLVLQCVAVGSPIPHYQWFKNELPLTHETKKLYMVPYVDLEHQGTYWCHVYNDRDSQDSKKVEIIIGRTDEAVECTEDELNNLGHPDNKEQTTDQPLAKDKVALLIGNMNYREHPKLKAPLVDVYELTNLLRQLDFKVVSLLDLTEYEMRNAVDEFLLLLDKGVYGLLYYAGHGYENFGNSFMVPVDAPNPYRSENCLCVQNILKLMQEKETGLNVFLLDMARKRNDYDDTIPILDALKVTANIVFGYATCQGAEAFEIQHSGLANGIFMKFLKDRLLEDKKITVLLDEVAEDMGKCHLTKGKQALEIRSSLSEKRALTDPIQGTEYSAESLVRNLQWAKAHELPESMCLKFDCGVQIQLGFAAEFSNVMIIYTSIVYKPPEIIMCDAYVTDFPLDLDIDPKDANKGTPEETGSYLVSKDLPKHCLYTRLSSLQKLKEHLVFTVCLSYQYSGLEDTVEDKQEVNVGKPLIAKLDMHRGLGRKTCFQTCLMSNGPYQSSAATSGGAGHYHSLQDPFHGVYHSHPGNPSNVTPADSCHCSRTPDAFISSFAHHASCHFSRSNVPVETTDEIPFSFSDRLRISEK
cleavage of Ac-LSSR-AMC in vitro (fluorescence release) (Ac-LSSR-AMC [1]): whereas bio-1P purified C464 mutant was not

B5: MALT1C-gyraseB-C464A (enzyme, part only; not given: gyrase B fragment)
chain, part: TTDQPLAKDKVALLIGNMNYREHPKLKAPLVDVYELTNLLRQLDFKVVSLLDLTEYEMRNAVDEFLLLLDKGVYGLLYYAGHGYENFGNSFMVPVDAPNPYRSENCLCVQNILKLMQEKETGLNVFLLDMARKRNDYDDTIPILDALKVTANIVFGYATCQGAEAFEIQHSGLANGIFMKFLKDRLLEDKKITVLLDEVAEDMGKCHLTKGKQALEIRSSLSEKRALTDPIQGTEYSAESLVRNLQWAKAHELPESMCLKFDCGVQIQLGFAAEFSNVMIIYTSIVYKPPEIIMCDAYVTDFPLDLDIDPKDANKGTPEETGSYLVSKDLPKHCLYTRLSSLQKLKEHLVFTVCLSYQYSGLEDTVEDKQEVNVGKPLIAKLDMHRGLGRKTCFQTCLMSNGPYQSSAATSGGAGHYHSLQDPFHGVYHSHPGNPSNVTPADSCHCSRTPDAFISSFAHHASCHFSRSNVPVETTDEIPFSFSDRLRISEK
cleavage of Ac-LSSR-AMC in vitro (fluorescence release) (Ac-LSSR-AMC [4]): the recombinant C464A mutant failed to do so, although its higher concentration | in vitro cleavage of radiolabeled A20 (SDS-PAGE, autoradiography; 500, 1000 or 1500 nM enzyme) [5]: incubation of A20 with the catalytically inactive MALT1C-gyraseB-C464A mutant protein did not result in A20 cleavage
